One molecule from patent publication US9475855B2, “Human Notch3 based fusion proteins as decoy inhibitors of Notch3 signaling” (THE TRUSTEES OF COLUMBIA UNIVERSITY IN THE CITY OF NEW YORK, priority 2008, dated 2016) can be followed below.

For experiment [1], the system named is VEGF-induced angiogenesis. Kind of experiment: mouse Dorsa Air Sac (DAS) assay. Format: in vivo. The source says: These Figures show the role of Notch signaling in VEGF-dependent in vivo angiogenesis. FIGS. 25A-25D show inhibition of VEGF-induced angiogenesis with N1ECDFc in mouse DAS assay. Representative photographs are shown. FIG. 25A show subcutaneous induced angiogenesis with 293/VEGF transfectant versus 293/VEGF also expressing Notch decoy (Notch-based fusion protein) N1ECDFc. […] MDA-MB-231 breast cancer cells produce VEGF (data not shown).

For a further experiment, the system named is Ad-VEGF-infected HUVEC. Kind of experiment: VEGF-induced HUVEC budding (sprouting) on collagen gel. Format: cell-based, human. The following applies: for budding / morphology of HUVEC with Notch fusion protein alone: no Ad-VEGF. How it is done:
For making collagen gels, an ice-cold solution of porcine type I collagen (Nitta gelatin, Tokyo, Japan) was mixed with 10xRPMI1640 medium and neutralization buffer at the ratio of 8:1:1. 400 μl aliquots of collagen gel were then added to 24-well plates and allowed to gel for at least 1 hour at 37° C. Following adenoviral infection (above), HUVEC was harvested and plated at 1.3×10^5 cells per well onto the top of the collagen gel in 24-well plates in 0.8 ml of EGM2 medium. HUVEC became nearly confluent 48 hours after plating. After seeding, medium was changed every 2 days for 1 week. Sprouting was observed and photographs taken after 8 days with an Olympus digital camera mounted to a microscope. For quantification of the number of sprouts, 5 fields per each well were randomly selected and sprouting was counted under microscopy in a blind manner by two investigators.
In this experiment, we evaluated the effect of Notch decoy on induction of budding (initiation of sprouting) by over-expressed VEGF-165 in HUVEC. When Ad-VEGF-infected HUVEC were cultured on type collagen gel for 8 days, budding was induced into collagen gel.

Where [2] appears, read: in vivo assays to model VEGF-induced skin neovascularization.

B1: N1ECDFc: Notch-based fusion protein or decoy: Notch1 extracellular domain EGF repeats fused to Fc; expressed from plasmid or adenovirus (Ad-N1ECDFc) (protein)
chain: ARGLRCSQPSGTCLNGGRCEVANGTEACVCSGAFVGQRCQDPSPCLSTPCKNAGTCYVVDHGGIVDYACSCPLGFSGPLCLTPLANACLANPCRNGGTCDLLTLTEYKCRCPPGWSGKSCQQADPCASNPCANGGQCLPFESSYICGCPPGFHGPTCRQDVNECSQNPGLCRHGGTCHNEIGSYRCACRATHTGPHCELPYVPCSPSPCQNGGTCRPTGDTTHECACLPGFAGQNCEENVDDCPGNNCKNGGACVDGVNTYNCRCPPEWTGQYCTEDVDECQLMPNACQNAGTCHNSHGGYNCVCVNGWTGEDCSDNIDDCASAACFQGATCHDRVASFYCECPHGRTGLLCHLNDACISNPCNEGSNCDTNPVNGKAICTCPRGYTGPACSQDVDECALGANPCEHAGKCLNTLGSFECQCLQGYTGPRCEIDVNECISNPCQNDATCLDQIGEFQCICMPGYEGVYCEINTDECASSPCLHNGRCVDKINEFLCQCPKGFSGHLCQYDVDECASTPCKNGAKCLDGPNTYTCVCTEGYTGTHCEVDIDECDPDPCHIGLCKDGVATFTCLCQPGYTGHHCETNINECHSQPCRHGGTCQDRDNYYLCLCLKGTTGPNCEINLDDCASNPCDSGTCLDKIDGYECACEPGYTGSMCNVNIDECAGSPCHNGGTCEDGIAGFTCRCPEGYHDPTCLSEVNECNSNPCIHGACRDGLNGYKCDCAPGWSGTNCDINNNECESNPCVNGGTCKDMTSGYVCTCREGFSGPNCQTNINECASNPCLNQGTCIDDVAGYKCNCPLPYTGATCEVVLAPCATSPCKNSGVCKESEDYESFSCVCPTGWQGQTCEIDINECVKSPCRHGASCQNTNGSYRCLCQAGYTGRNCESDIDDCRPNPCHNGGSCTDGVNAAFCDCLPGFQGAFCEEDINECATNPCQNGANCTDCVDSYTCTCPTGFNGIHCENNTPDCTESSCFNGGTCVDGINSFTCLCPPGFTGSYCQYDVNECDSRPCLHGGTCQDSYGTYKCTCPQGYTGLNCQNLVRWCDSAPCKNGGKCWQTNTQYHCECRSGWTGFNCDVLSVSCEVAAQKRGIDVTLLCQHGGLCVDEEDKHYCHCQAGYTGSYCEDEVDECSPNPCQNGATCTDYLGGFSCKCVAGYHGSNCSEEINECLSQPCQNGGTCIDLTNTYKCSCPRGTQGVHCEINVDDCHPPLDPASRSPKCFNNGTCVDQVGGYTCTCPPGFVGERCEGDVNECLSNPCDPRGTQNCVQRVNDFHCECRAGHTGRRCESVINGCRGKPCRNGGVCAVASNTARGFICRCPARFEGATCENDARTCGSLRCLNGGTCISGPRSPTCLCLGSFTGPECQFPASSPCVGSNPCYNQGTCEPTSESPFYRCLCPAKFNGLLCHILDYSFTDLGPG
modifications: left off: a dimerising Fc or GST
Take B1: the “in vivo angiogenesis induced by MDA-MB-231” value in experiment [1] (adenovirus mediated expression of N1ECDFc, compared to adenovirus expressing LacZ) is “clearly inhibited”. Also, the “in vivo angiogenesis induced by 293/VEGF” value in experiment [1] (coexpression of N1ECDFc, compared to 293/VEGF alone) is on record as “clearly inhibited”. Further, in experiment [1] (setting [2]), the VEGF-induced neo-vascularization entry is recorded as “blocks”. Further, the “induction of VEGFR-1 expression” value in experiment [1] (setting [2]) is given as “blocks”. For the same molecule, the “cell number in VEGF-induced budding assay” value in the experiment on Ad-VEGF-infected HUVEC (FIG. 22I) is “without affecting cell number”. Besides, the “budding of Ad-VEGF-HUVEC” value with Ad-VEGF-infected HUVEC (collagen gel) was “clearly inhibited”. In addition, the “budding / morphology of HUVEC with Notch fusion protein alone” value with Ad-VEGF-infected HUVEC was “Neither Ad-LacZ or Ad-N1ECDFc-transduced HUVEC formed buds”; in the experiment on Ad-VEGF-infected HUVEC (listed as Notch fusion protein), “less effect on morphology”.
